Assay results as given in patent US20190105405A1 (MONASH UNIVERSITY, published 2019).

What was measured:
[1] = target: PDIA1 (human) (UniProt P07237); assay: co-IP from LIM1215 lysates equalised for ADAM10, mass spectrometry
[2] = target: T1, AxxA mutant human ADAM10 (Cys594 and Cys597 to alanine) (human, UniProt O14672 214-748); assay: immunoprecipitation from lysates of ADAM10-/- MEFs transfected with AxxA mutant ADAM10, Western blot α-ADAM10
T1 construct: Expressed in ADAM10-/- mouse embryonic fibroblasts; tested in detergent lysates by IP; also called AXXA mutant ADAM10; AxxA ADAM10; not shown: turbo-myc tag of the OriGene construct
T1 sequence: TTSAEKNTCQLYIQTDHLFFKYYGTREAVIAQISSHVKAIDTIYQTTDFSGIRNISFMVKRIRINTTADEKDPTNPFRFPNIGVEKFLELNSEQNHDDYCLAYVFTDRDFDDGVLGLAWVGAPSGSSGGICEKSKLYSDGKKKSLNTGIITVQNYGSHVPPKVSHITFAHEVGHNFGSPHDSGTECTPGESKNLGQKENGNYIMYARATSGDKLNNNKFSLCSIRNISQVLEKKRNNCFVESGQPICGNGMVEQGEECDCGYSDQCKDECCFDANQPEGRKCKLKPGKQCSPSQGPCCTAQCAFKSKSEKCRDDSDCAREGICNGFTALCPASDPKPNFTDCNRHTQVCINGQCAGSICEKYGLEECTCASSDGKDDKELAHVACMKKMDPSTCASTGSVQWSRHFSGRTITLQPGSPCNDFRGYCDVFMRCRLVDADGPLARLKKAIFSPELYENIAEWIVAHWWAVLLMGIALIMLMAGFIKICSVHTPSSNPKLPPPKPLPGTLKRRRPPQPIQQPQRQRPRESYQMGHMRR

[3] = target: T2, recombinant huADAM10D+C protein (human, UniProt O14672 455-646); assay: SPR, BIAcore 3000, huADAM10D+C immobilised, antibody in solution
T2 construct: the whole entry is named here (the bovine construct was 455-646); also called huADAM10D+C domain protein; immobilised recombinant huADAM10D+C
T2 sequence: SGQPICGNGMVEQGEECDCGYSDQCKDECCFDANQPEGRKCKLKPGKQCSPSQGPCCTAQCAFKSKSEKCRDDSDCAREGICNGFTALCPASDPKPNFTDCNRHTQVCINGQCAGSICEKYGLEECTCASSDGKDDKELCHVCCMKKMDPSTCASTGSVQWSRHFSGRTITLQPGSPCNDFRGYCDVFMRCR

PDIA1 (human), sequence (P07237 18-508 limits assumed): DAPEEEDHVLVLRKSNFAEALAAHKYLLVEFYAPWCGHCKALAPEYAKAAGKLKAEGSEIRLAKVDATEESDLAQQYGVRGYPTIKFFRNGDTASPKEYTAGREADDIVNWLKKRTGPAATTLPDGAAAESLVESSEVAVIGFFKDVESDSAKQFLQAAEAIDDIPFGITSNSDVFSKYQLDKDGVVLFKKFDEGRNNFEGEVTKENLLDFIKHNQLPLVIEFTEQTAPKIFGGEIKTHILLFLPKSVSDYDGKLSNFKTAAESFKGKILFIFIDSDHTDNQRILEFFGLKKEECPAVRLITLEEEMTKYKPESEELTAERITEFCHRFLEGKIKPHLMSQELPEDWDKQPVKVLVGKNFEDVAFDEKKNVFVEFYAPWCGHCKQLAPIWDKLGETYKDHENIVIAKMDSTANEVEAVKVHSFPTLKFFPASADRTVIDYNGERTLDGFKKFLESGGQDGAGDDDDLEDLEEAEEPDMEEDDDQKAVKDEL

| Molecule | fold more peptides detected in 8C7 IPs than in 4A11 IPs [1] | binding result [2] | Kd [3] | koff [3] | kon [3] |
| --- | --- | --- | --- | --- | --- |
| human ADAM10, endogenous full length (from UniProt O14672 214-748) (enzyme) | > 50 fold | – | – | – | – |
| anti-ADAM10 monoclonal antibody 8C7 (murine) (antibody, V domains shown, Alexa647 dye or coupling to Minileak beads in some experiments; not carried by the letters, Murine whole IgG; Used soluble, coupled to Minileak beads, or Alexa647-labelled depending on the experiment; also called mAb 8C7; mAb8C7) VH: EVQLQQSGAELARPGSSVKLSCKASGYTFTNYWLQWVKQRTGQGLEWIGAIYPRDGDAKYSQKFKDKASLTVNESSSTAYMHLSALASEDSAVYYCARANYGLYYAMDRWGQGTSVTVSS VL: DIFLTQSPANMSVSPGERVSFSCRASQNIGTNIHWYQQRTNGSPRLLIKYASESISGIPSRFSGSGSGTDFILSINTVESEDIAVYFCQQSNRWPFTFGSGTKLEVI | – | no binding | – | – | – |
| ch8C7, human and mouse chimerised version of mAb 8C7 (antibody, V domains shown, The exact V/C junction is not described; also called chimeric 8C7) VH: EVQLQQSGAELARPGSSVKLSCKASGYTFTNYWLQWVKQRTGQGLEWIGAIYPRDGDAKYSQKFKDKASLTVNESSSTAYMHLSALASEDSAVYYCARANYGLYYAMDRWGQGTSVTVSS VL: DIFLTQSPANMSVSPGERVSFSCRASQNIGTNIHWYQQRTNGSPRLLIKYASESISGIPSRFSGSGSGTDFILSINTVESEDIAVYFCQQSNRWPFTFGSGTKLEVIR | – | – | 6.71 nM | 0.00105 s⁻¹ | 157000 M⁻¹ s⁻¹ |
| hu8C7, fully humanised version of 8C7 (antibody, human IgG1, kappa, V domains shown, Human IgG1-kappa; humanised variable domains replaced the murine ones in the ch8C7 constructs; The exact V/C junction is not described; also called humanized 8C7) VH: EVQLQQSGAELAKPGSSVKLSCKASGYTFTNYWLQWVKQRPGQGLEWIGAIYPRDGDAKYSQKFKDKASITVNESTSTAYMHLSSLRSEDTAVYYCARANYGLYYAMDRWGQGTTVTVSS VL: DIVLTQSPAFMSVSPGERVSVSCRASQNIGTNIHWYQQRPDQSPRLLIKYASESISGIPSRFSGSGSGTDFYLTINSVESEDIAVYFCQQSNRWPFTFGSGTKLEVKR | – | – | 7.33 nM | 0.00122 s⁻¹ | 166000 M⁻¹ s⁻¹ |
